Results taken from US10220090B2, “BCMA Antigen binding proteins” (Amgen Inc., priority 2012, dated 2019).

Key:
[1] = system: H929; assay: CellTiter-Glo Luminescent Cell Viability Assay, H929; assay type: cell-based, human; conditions: ADCs of hybridoma-derived antibodies
Protocol: The ADCs were tested for the ability to target and kill BCMA-expressing myeloma cells. The CellTiter-Glo® Luminescent Cell Viability Assay is a homogeneous method to determine the number of viable cells in culture based on quantitation of the ATP present, which signals the presence of metabolically active cells. The CellTiter-Glo® Assay is applicable to cytotoxicity assays (see http://www.promega.com/products/cell-health-assays/cell-viability-assays/celltiter_glo-luminescent-cell-viability-assay/for more information). The cell viability assay was used to assess the relative killing capacity of various ADCs on various multiple myeloma cell lines and B-cell lines. The protocol provided in the Cell Titer-Glo kit (Promega G7572) was followed. […] The ADCs were diluted into a 10× stock to create 500 nM maytansine drug equivalents. […] 10 ul of the 10×ADC dilution series was added to the 90 ul of cells in media (triplicate wells). The highest concentration of ADC was approximately 50 nM maytansine drug equivalents, and the lowest concentration of ADC was approximately 50 pM maytansine drug equivalents. An isotype control ADC (an anti-streptavidin huIgG1 conjugated to MCC-DM1) was included, as well as a media-only control. The plates were incubated at 37° C., 5% CO2 for 96 hours. After incubation, 100 ul of the Substrate Solution (Promega G7572) was added to each well. Luminescence was read on an EnVision™ Multilabel reader (PerkinElmer) or Analyst HT plate reader (LJL Biosciences). The data was analyzed and graphed using GraphPad Prism™ to determine the relative efficacy of the ADCs on various cancer cell lines.
The 2A1CV5-MCC-DM1, 32B5-MCC-DM1 and 29C12-MCC-DM1 ADCs were tested for the ability to target and kill BCMA-expressing myeloma cells (H929). The CellTiter-Glo® Luminescent Cell Viability Assay is a homogeneous method to determine the number of viable cells in culture based on quantitation of the ATP present, which signals the presence of metabolically active cells. The CellTiter-Glo® Assay is applicable to cytotoxicity assays (see http://www.promega.com/products/cell-health-assays/cell-viability-assays/celltiter_glo-luminescent-cell-viability-assay/for more information). The cell viability assay was used to assess the relative killing capacity of various ADCs on various multiple myeloma cell lines and B-cell lines. The protocol provided in the Cell Titer-Glo kit (Promega G7572) was followed. […] The ADCs were diluted into a 10× stock to create 500 nM maytansine drug equivalents. […] 10 ul of the 10×ADC dilution series was added to the 90 ul of cells in media (triplicate wells). The highest concentration of ADC was approximately 50 nM maytansine drug equivalents, and the lowest concentration of ADC was approximately 50 pM maytansine drug equivalents. An isotype control ADC (an anti-streptavidin huIgG1 conjugated to MCC-DM1) was included, as well as a media-only control. The plates were incubated at 37° C., 5% CO2 for 96 hours. After incubation, 100 ul of the Substrate Solution (Promega G7572) was added to each well. Luminescence was read on an EnVision™ Multilabel reader (PerkinElmer) or Analyst HT plate reader (LJL Biosciences). The data was analyzed and graphed using GraphPad Prism™ to determine the relative efficacy of the ADCs on various cancer cell lines.

[2] = molecular target: T1, human BCMA (Homo sapiens, UniProt Q02223, N81S); assay: FACS binding on cells transiently transfected to express full length BCMA
T1 construct: expressed in transfected cells
T1 sequence (Q02223 1-184 N81S): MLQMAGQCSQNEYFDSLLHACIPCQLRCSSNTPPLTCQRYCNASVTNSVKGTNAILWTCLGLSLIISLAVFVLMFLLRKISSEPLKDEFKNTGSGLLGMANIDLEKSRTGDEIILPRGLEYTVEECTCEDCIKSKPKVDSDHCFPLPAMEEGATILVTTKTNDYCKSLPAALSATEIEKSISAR
Protocol: An important criterion is exquisite selectivity for wild-type human BCMA expressed on the surface of cells. FACS binding on cells transiently transfected to express full length BCMA, TACI, or BAFF-R was performed using standard techniques. Approximately 40×10^6 of the transiently-transfected target cells were resuspended in a staining solution (2% goat serum, 1% rabbit serum, 0.02% azide in PBS) and aliquoted into round-bottom, 96-well plate (Corning Incorp., Acton, Mass.) as per the experiment design. The cells were incubated at 4 degrees celsius for 30 minutes to block non-specific sites. The antibodies were titrated into the staining solution. The cells were rinsed in a rinse solution (PBS+0.02% azide) by resuspending the cells in 200 ul/well. The cells were centrifuged at 1500 rpm at 4 degrees celsius for 7 minutes. The rinse solution was removed and the rinse step was repeated. The cells were resuspended in the appropriate antibody solution (see the matrix in TABLE 4) at 30 ul/well and incubated at 4 degrees celsius for 30 minutes. […] For the mouse IgG1 negative control and the two mouse antibodies (1.183 and 1.288), the secondary reagent was an anti-mouse IgG-PE conjugate (BD Pharmingen Cat. 550589). The cells/antibodies were rinsed as described above to remove excess/unbound antibody. […] Samples were read at 532 nm wavelength on FACS. […]

[3] = molecular target: T2, BCMA on H929 cells (Homo sapiens, UniProt Q02223, N81S); assay: FACS binding to native BCMA on H929 myeloma cells
T2 construct: host or cells: H929
T2 sequence (Q02223 1-184 N81S): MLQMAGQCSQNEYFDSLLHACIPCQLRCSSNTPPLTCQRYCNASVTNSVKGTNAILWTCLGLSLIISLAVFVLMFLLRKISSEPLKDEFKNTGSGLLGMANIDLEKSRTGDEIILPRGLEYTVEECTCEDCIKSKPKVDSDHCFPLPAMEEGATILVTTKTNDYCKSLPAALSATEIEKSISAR
Protocol: Approximately 10 to 40×10^6 of H929 myeloma cells were resuspended in a staining solution (2% goat serum, 1% rabbit serum, 0.02% azide in PBS) and aliquoted into round-bottom, 96-well plate (Corning Incorp., Acton, Mass.) as per the experiment design. The cells were incubated at 4 degrees celsius for 30 minutes to block non-specific sites. The antibodies were titrated into the staining solution. The cells were rinsed in a rinse solution (PBS+0.02% azide) by resuspending the cells in 200 ul/well. The cells were centrifuged at 1500 rpm at 4 degrees celsius for 7 minutes. The rinse solution was removed and the rinse step was repeated. […] The cells/antibodies were rinsed as described above to remove excess/unbound antibody. After the last rinse, the cells were resuspended in 200 ul of rinse solution with a drop of staining solution added to keep the cells from aggregating.
The antibodies were tested for binding to BCMA endogenously-expressed on a variety of cells, including the H929 cell line, which were developed from B-lymphocytes from a myeloma/plasmacytoma patient (ATCC, Manassa, Va.) using standard FACs techniques. […] The supernatants were removed and the cell pellets were resuspended in 0.2 mL/tube 4% paraformaldehyde in PBS and analyzed by flow cytometry

Row | Molecule | cytotoxicity to huBCMA-expressing myeloma target cells (H929) [1] | BCMA (FACS binding) [2] | binding to human BCMA on the surface of H929 myeloma cell line [3]
1 | 29C12.1 ADC (conjugate) VH: EVQLLESGGALVQPGGSLRLSCAASGFTFSSYAMNWVRQAPGKGLEWVSAISVGGDTYYADSVKGRFTISRDNSKNTLYLQMNSLRAEDTAVYYCAKDQVTMVRGVWYYYGLDVWGQGTTVTVSS VL: DIVMIQSPLSLPVTPGEPASISCRSSQSLLHSNGNNYLDWYLQKPGQSPHLLISLGSNRTSGVPDRFSGSGSGTDFTLKISRVEAEDVGVYYCMQALQPPRRFGQGTKLEIKR | showed cytotoxicity | – | –
2 | 32B5.1 ADC (conjugate) VH: EVQLLESGGALVQPGGSLRLSCAASGFTFSSYAMNWVRQAPGKGLEWVSAISVGGDTYYADSVKGRFTISRDNSKNTLYLHVNSLSAEDSAVYYCAKDQVTLVRGVWYYYGLDVWGQGTTVTVSS VL: VIVLIQSPLSLPVTPGEPASISCRSSQSLLHSNGNNYLDWYLQKPGQSPHLLISLGSNRTSGVPDRFSGSGSGTDFTLKISRVEAEDVGFYYCMQALQPPRRFGQGTKLEIKR | showed cytotoxicity | – | –
3 | 37B2.1 ADC (conjugate) VH: EVQLLESGGALVQPGGSLRLSCAASGFTFSNYAMNWVRQAPGKGLEWVSAISVGGDTYYADSVKGRFTISRDNSKNTLYLHVNSLSAEDSAVYYCAKDQVTLVRGVWYYYGLDVWGQGTTVTVSS VL: VIVLIQSPLSLPVTPGEPASISCRSSQSLLHSNGNNYLDWYLQKPGQSPHLLISLGSNRTSGVPDRFSGSGSGTDFTLKISRVEAEDVGFYYCMQALQPPRRFGQGTKLEIKR | showed cytotoxicity | – | –
4 | 35D2.1 ADC (conjugate) VH: EVQLLESGGALVQPGGSLRLSCAASGFTFSSYAMNWVRQAPGKGLEWVSAISVGGGTYYADSVKGRFTISRDNSKNTLYLHVNSLRAEDTAVYYCAKDQVTMVRGVWYYYGLDVWGQGTTVTVSS VL: VIVLIQSPLSLPVTPGEPASISCRSSQSLLHSNGNNYLDWYLQKPGQSPHLLISLGSNRTSGVPDRFSGSGSGTDFTLKISRVEAEDVGFYYCMQALQPPRRFGQGTKLEIKR | showed cytotoxicity | – | –
5 | 40D7.1 ADC (conjugate) VH: EVQLLESGGALVQPGGSLRLSCAASGFTFSSYAMNWVRQAPGKGLEWVSAISVGGDTYYADSVKGRFTISRDNSKNTLYLQMNSLRAEDTAVYYCAKDQVTMVRGVWYYYGLDVWGQGTTVTVSS VL: DIVMIQSPLSLPVTPGEPASISCRSSQSLLHSNGNNFLDWYLQKPGQSPHLLISLGSNRTSGVPDRLSGSGSGTDFTLKISRVEAEDVGIYYCMQALRPPRRFGQGTKLEIKR | showed cytotoxicity | – | –
6 | 33C7.1 ADC (conjugate) VH: EVQLLESGGALVQPGGSLRLSCAASGFTFSSYAMNWVRQAPGKGLEWVSAISVGGDTYYADSVKGRFTISRDNSKNTLYLHVNSLSAEDSAVYYCAKDQVTLVRGVWYYYGLDVWGQGTTVTVSS VL: VIVLIQSPLSLPVTPGEPASISCRSSQSLLHSNGNNYLDWYLQKPGQSPHLLISLGSNRTSGVPDRFSGSGSGTDFTLKISRVEAEDVGFYYCMQALQPPRRFGQGTKLEIKR | showed cytotoxicity | – | –
7 | Ab-4: fully human anti-huBCMA mAb, Vh SEQ ID NO:212, Vl SEQ ID NO:246 (antibody, V domains shown) VH: QVQLVQSGAEVKKPGASVKVSCKASGYTFTGHYIHWVRQAPGQGLEWMGWIYPNSGGTNYAQKFQGRVTMTRDTSISTAYMELSRLRSDDSAVYYCAREGMVTGDYYYYRMDVWGQGTTVIVSS VL: QPVLTQPPSASASLGASVTLTCSLSSGYSNYKVDWYQQRPGKGPRFVMRVGIGGIVGSKGDGIPDRFSVLGSGLNRYLTIKNIQEEDESDFHCGADHGSGNNFVYVFGTGTKVTVLG | – | + (A sample was considered positive for binding if the MFI was two times the negative control value) | bound to human BCMA
